Experimental data taken from article PMC3903132.

Target: PSI^PsaJF, phage-mimetic photosystem I complex with the fused PsaJF subunit (one monomer of the trimer) (Synechocystis sp. PCC 6803) (UniProt P29254)
Assay: crystal structure; PSI^PsaJF trimer purified from Synechocystis membranes, 3.8 Å, space group P21, three monomers in the asymmetric unit

PSI^PsaJF, phage-mimetic photosystem I complex with the fused PsaJF subunit (one monomer of the trimer) (from UniProt P29254 1-751; P29255 1-731; P32422 1-81; P19569 1-141; P12975 1-74; Q55329 1-40; P29256 84-165; Q55330 1-40; P72712 1-86; P37277 1-157; P72986 1-31)
stoichiometry N: 3
